Assays:
[1] = Stability (formation of dimers and polymers) of B29-N^ε-myristoyl-des(B30) human insulin solutions, varying NaCl, mannitol and phenol (Example V); assay type: physicochemical; details: pH 7.4
Description: Solutions containing 0.6 mM B29-N^ε -myristoyl-des(B30) human insulin, 1.5 or 4.0 mg/ml phenol, 5 mM sodium phosphate, 13.1 μg/ml Zn, and varying amounts of sodium chloride and mannitol were prepared. pH was adjusted to 7.4. Stability data (formation of dimers and polymers) after storage at 25° C. for 13 weeks or 37° C. for 8 weeks are presented in the following table 7.

[2] = Stability (formation of dimers and polymers) of B29-N^ε-myristoyl des(B30) human insulin solutions, glycerol or mannitol, varying NaCl (Example VI); assay type: physicochemical; details: pH 7.5
Description: Solutions containing 0.6 mM B29-N^ε -myristoyl des(B30) human insulin, 1.5 mg/ml phenol and 1.72 mg/ml m-cresol, 16 mg/ml glycerol or 36 mg/ml mannitol, 13.1 μg/ml Zn, 7 mM sodium phosphate and varying amounts of sodium chloride were prepared. pH was adjusted to 7.5. Stability data (formation of dimers and polymers) after storage at 25° C. for 13 weeks or 37° C. for 8 weeks are presented in the following table 8.

B29-N^ε -myristoyl-des(B30) human insulin
Di- & polymers (%) formed ([1]; 8 weeks at 37° C., NaCl 20 mM, mannitol 31 mg/ml, phenol 1.5 mg/ml): 0.77% | Di- & polymers (%) formed ([1]; 8 weeks at 37° C., NaCl 20 mM, mannitol 31 mg/ml, phenol 4.0 mg/ml): 0.77% | Di- & polymers (%) formed ([1]; 8 weeks at 37° C., NaCl 50 mM, mannitol 22 mg/ml, phenol 1.5 mg/ml): 0.71% | Di- & polymers (%) formed ([1]; 8 weeks at 37° C., NaCl 50 mM, mannitol 22 mg/ml, phenol 4.0 mg/ml): 0.71% | Di- & polymers (%) formed ([1]; 8 weeks at 37° C., NaCl 75 mM, mannitol 13 mg/ml, phenol 1.5 mg/ml): 0.65% | Di- & polymers (%) formed ([1]; 8 weeks at 37° C., NaCl 75 mM, mannitol 13 mg/ml, phenol 4.0 mg/ml): 0.70% | Di- & polymers (%) formed ([1]; 8 weeks at 37° C., NaCl 100 mM, mannitol 5 mg/ml, phenol 1.5 mg/ml): 0.66% | Di- & polymers (%) formed ([1]; 8 weeks at 37° C., NaCl 100 mM, mannitol 5 mg/ml, phenol 4.0 mg/ml): 0.68% | Di- & polymers (%) formed ([1]; 13 weeks at 25° C., NaCl 20 mM, mannitol 31 mg/ml, phenol 1.5 mg/ml): 0.40% | Di- & polymers (%) formed ([1]; 13 weeks at 25° C., NaCl 20 mM, mannitol 31 mg/ml, phenol 4.0 mg/ml): 0.42% | Di- & polymers (%) formed ([1]; 13 weeks at 25° C., NaCl 50 mM, mannitol 22 mg/ml, phenol 1.5 mg/ml): 0.35% | Di- & polymers (%) formed ([1]; 13 weeks at 25° C., NaCl 50 mM, mannitol 22 mg/ml, phenol 4.0 mg/ml): 0.37% | Di- & polymers (%) formed ([1]; 13 weeks at 25° C., NaCl 75 mM, mannitol 13 mg/ml, phenol 1.5 mg/ml): 0.34% | Di- & polymers (%) formed ([1]; 13 weeks at 25° C., NaCl 75 mM, mannitol 13 mg/ml, phenol 4.0 mg/ml): 0.39% | Di- & polymers (%) formed ([1]; 13 weeks at 25° C., NaCl 100 mM, mannitol 5 mg/ml, phenol 1.5 mg/ml): 0.31% | Di- & polymers (%) formed ([1]; 13 weeks at 25° C., NaCl 100 mM, mannitol 5 mg/ml, phenol 4.0 mg/ml): 0.37% | Di- & polymers (%) formed ([2]; 8 weeks at 37° C., NaCl 5 mM, glycerol 16 mg/ml): 2.55% | Di- & polymers (%) formed ([2]; 8 weeks at 37° C., NaCl 5 mM, mannitol 36 mg/ml): 2.28% | Di- & polymers (%) formed ([2]; 8 weeks at 37° C., NaCl 10 mM, glycerol 16 mg/ml): 2.25% | Di- & polymers (%) formed ([2]; 8 weeks at 37° C., NaCl 10 mM, mannitol 36 mg/ml): 1.90% | Di- & polymers (%) formed ([2]; 8 weeks at 37° C., NaCl 20 mM, glycerol 16 mg/ml): 1.82% | Di- & polymers (%) formed ([2]; 8 weeks at 37° C., NaCl 20 mM, mannitol 36 mg/ml): 1.61% | Di- & polymers (%) formed ([2]; 8 weeks at 37° C., NaCl 30 mM, glycerol 16 mg/ml): 1.83% | Di- & polymers (%) formed ([2]; 8 weeks at 37° C., NaCl 40 mM, glycerol 16 mg/ml): 1.78% | Di- & polymers (%) formed ([2]; 8 weeks at 37° C., NaCl 40 mM, mannitol 36 mg/ml): 1.56% | Di- & polymers (%) formed ([2]; 8 weeks at 37° C., NaCl 50 mM, glycerol 16 mg/ml): 1.68% | Di- & polymers (%) formed ([2]; 13 weeks at 25° C., NaCl 5 mM, glycerol 16 mg/ml): 1.08% | Di- & polymers (%) formed ([2]; 13 weeks at 25° C., NaCl 5 mM, mannitol 36 mg/ml): 1.05% | Di- & polymers (%) formed ([2]; 13 weeks at 25° C., NaCl 10 mM, glycerol 16 mg/ml): 0.98% | Di- & polymers (%) formed ([2]; 13 weeks at 25° C., NaCl 10 mM, mannitol 36 mg/ml): 0.84% | Di- & polymers (%) formed ([2]; 13 weeks at 25° C., NaCl 20 mM, glycerol 16 mg/ml): 0.80% | Di- & polymers (%) formed ([2]; 13 weeks at 25° C., NaCl 20 mM, mannitol 36 mg/ml): 0.71% | Di- & polymers (%) formed ([2]; 13 weeks at 25° C., NaCl 30 mM, glycerol 16 mg/ml): 0.80% | Di- & polymers (%) formed ([2]; 13 weeks at 25° C., NaCl 40 mM, glycerol 16 mg/ml): 0.79% | Di- & polymers (%) formed ([2]; 13 weeks at 25° C., NaCl 40 mM, mannitol 36 mg/ml): 0.70% | Di- & polymers (%) formed ([2]; 13 weeks at 25° C., NaCl 50 mM, glycerol 16 mg/ml): 0.72%

Reference: patent US5866538A, “Insulin preparations containing NaCl” (Novo Nordisk A/S, priority 1996, dated 1999)
